The values below come from patent US20210017275A1 (Alector, published 2021).

Where a chain is given by its changes, count along the chain named.

To fix the notation:
T1: Human Siglec 5, Fc chimera (R&D Systems) (human, UniProt O15389 17-434, limits assumed)
T1 construct: Bought or recombinant Fc fusion; also called recombinant Siglec-5-Fc; not shown: Fc part
T1 sequence: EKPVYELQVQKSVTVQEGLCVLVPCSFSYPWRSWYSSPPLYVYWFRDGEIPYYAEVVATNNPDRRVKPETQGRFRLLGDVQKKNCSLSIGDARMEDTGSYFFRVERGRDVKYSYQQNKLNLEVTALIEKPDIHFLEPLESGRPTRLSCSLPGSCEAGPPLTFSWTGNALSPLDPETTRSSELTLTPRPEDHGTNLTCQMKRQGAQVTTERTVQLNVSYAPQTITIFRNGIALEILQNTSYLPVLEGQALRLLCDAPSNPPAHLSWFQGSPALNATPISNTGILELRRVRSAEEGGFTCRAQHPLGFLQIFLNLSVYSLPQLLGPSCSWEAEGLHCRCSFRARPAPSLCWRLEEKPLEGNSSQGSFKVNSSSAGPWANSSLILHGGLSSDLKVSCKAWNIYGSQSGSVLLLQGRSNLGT

T2: human Siglec-5 expressed on human primary cells (human, UniProt O15389 17-551)
T2 construct: Endogenous receptor on human primary monocytes, dendritic cells, macrophages and neutrophils; also called CD170
T2 sequence: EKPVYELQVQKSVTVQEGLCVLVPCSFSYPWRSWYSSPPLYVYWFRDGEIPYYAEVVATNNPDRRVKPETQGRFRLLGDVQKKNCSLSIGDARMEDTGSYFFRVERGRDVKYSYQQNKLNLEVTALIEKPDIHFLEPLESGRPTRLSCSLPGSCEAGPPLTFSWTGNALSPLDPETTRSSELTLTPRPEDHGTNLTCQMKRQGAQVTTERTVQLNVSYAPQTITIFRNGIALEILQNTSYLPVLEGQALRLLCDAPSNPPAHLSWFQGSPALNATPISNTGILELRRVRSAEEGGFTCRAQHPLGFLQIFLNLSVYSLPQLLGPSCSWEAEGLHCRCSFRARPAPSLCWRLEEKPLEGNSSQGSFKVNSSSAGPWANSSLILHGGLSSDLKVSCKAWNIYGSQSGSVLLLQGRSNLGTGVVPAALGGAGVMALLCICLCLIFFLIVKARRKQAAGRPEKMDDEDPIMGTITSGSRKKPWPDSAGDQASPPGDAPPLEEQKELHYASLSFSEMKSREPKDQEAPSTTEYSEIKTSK

T3: Histidine-tagged human Siglec-5 (NovoProtein) (human, UniProt O15389 17-434, limits assumed)
T3 construct: Bought protein; also called Siglec-5-his tagged protein; not shown: histidine tag
T3 sequence: T1 sequence

B1: anti-Siglec-5 monoclonal antibody 9B1 (antibody, IgG1, V domains shown)
VH: QVQLQQSGAELVKPGASVKLSCKASGYTFTEYTIHWVKQRSGQGLEWIGWFYPGSGSIKYNEKFKDKATLTADKSSSTVYMELSRLTSEDSAVYFCARQEEGGIGFDYWGQGTTLTVSS
VL: DVLMTQTPLSLLVSLGDQASISCRSSQSIVHSNGNTYLEWYLQKPGQSPKLLIYKVSIRFSGVPDRFSGSGSGTDFTLKISRVEAEDLGVYYCFQGSHVPWTFGGGTKLEIK
B2: anti-Siglec-5 monoclonal antibody 11C6 (antibody, IgG1, V domains shown)
VH: B1 VH with D73V, L83F, E100D, E101Y, G102D, I104L, D107A, T114L, L115V, S119A
VL: B1 VL with L12P, S28T, I58N
notes: also called 1106
B3: anti-Siglec-5 monoclonal antibody 7A5 (antibody, IgG1, V domains shown)
VH: EIQLQQSGPELVKPGASVKVSCKASGYSFTDYNMYWVKQSHGKSLEWIGYIDPYNGGTTYNQKFKGKATLTVDKSSSTAFMHLNSLTSEDSAVFYCAFYYGYYGVPYWGQGTLVTVSA
VL: DIVMIQSQKFMSTSVGDRVSVTCKASQNVDTNVAWYQQKPGQSPKALIYSASYRYSGVPDRFTGSGSGTDFTLTISNVQSEDLAEYFCQQYNSFPLTFGSGTKLEIK
B4: anti-Siglec-5 monoclonal antibody 5H2 (antibody, IgG1, V domains shown)
VH: B3 VH with I2V, T59S, H82L, F94Y, F98L, G101D, Y103D, V105I
VL: B3 VL with I5T, D30G, Q37R, S56N, F94Y, L96Y, S100G
B5: anti-Siglec-5 monoclonal antibody 8A1 (antibody, IgG1, V domains shown)
VH: EIQLQQSGPELVKPGASVKVSCKASDYAFTSYNIYWVKQSHGKSLEWIGYIDPYNGGTSYNQTFKGKATLTVDKSSSTAYMHLNSLTSEDSAVYYCAMKVGYEAMDYWGQGTSVTVSS
VL: B3 VL with I5T, D30G, N32Y, T74N, Y91F, F94Y, L96Y, S100G
B6: anti-Siglec-5 monoclonal antibody 10B6 (antibody, IgG1, V domains shown)
VH: B3 VH with W47C, I48F, T58P, T59Y, F94Y
VL: B3 VL with I5T, Q27H, D30G, N32S, A46S, F94Y
B7: anti-Siglec-5 monoclonal antibody 10F9 (antibody, IgG1, V domains shown)
VH: EIQLQQSGPELVKPGASVKVSCKASGYSFTGYNMYWVKQSHGKSFEWIGYIDPYTGGTSYNQRFKGKATLTVDKSSSTAFMHLNSLTSEDSAIYYCALFYDYDGFPYWGQGTLVTVSA
VL: B3 VL with I5T, F94Y, L96Y, S100G
B8: anti-Siglec-5 monoclonal antibody 11H3 (antibody, IgG1, V domains shown)
VH: B5 VH with E1Q, I2V
VL: B3 VL with V3Q, I5T, D30G, T74N, Y91F, F94Y, L96Y, S100G
B9: anti-Siglec-5 monoclonal antibody 2G5 (antibody, IgG1, V domains shown)
VH: EIQLQQSGPELVKPGASVKVSCKASGYSFTDYNMYWVKQSHGKSLEWIGYIDPYNGNTTYNQRFKGKATLTVDKSSSTAFMHLNSLTSEDAAVYYCATFYGFDGFAYWGQGSLVAVSA
VL: QAVVTQESALTTSPGETVTLTCRSSTGAVTTSNYANWVQEKPDHLFTGLIGTTNNRAPGVPARFSGSLIGDKAALTITGAQTEDEAIYFCALWYSNHLVFGGGTKLTVLG

For the first assay, the target named is T1, Human Siglec 5, Fc chimera (R&D Systems). Put plainly: RBC adhesion to plate-bound Siglec-5-Fc, 0.3 ug/ml mAb, percent of binding without antibody.
Description: (§1) Siglec-5 antibodies (0.3 μg/ml or 1.0 μg/ml) were bound for one hour at RT with gentle rocking. After removal of unbound antibody, red blood cells were added to each well at a concentration of 3.0 ×10⁶ cells per ml and incubated at RT for one hour. Unbound RBCs were then carefully washed off 3X with PBS, and water was added to each well for hypotonic lysis of bound RBCs. The plate was transferred to -80° C. for 10 minutes, followed by 37° C. for 15 minutes. Bound RBCs were detected by peroxidase activity, followed by 2N sulfuric acid to stop the reaction.
With B1, the “Percent RBC Binding to Siglec-5” value came to 29.2%.
For the molecule B2, the “Percent RBC Binding to Siglec-5” value stood at 25.4%.
With B3, the “Percent RBC Binding to Siglec-5” value amounted to 47.4%.
On to B4, for which the “Percent RBC Binding to Siglec-5” value was determined as 36.5%.
Regarding B5, the “Percent RBC Binding to Siglec-5” value was 19%.
As to B6, the “Percent RBC Binding to Siglec-5” value was determined as 27.5%.
As for B7, the “Percent RBC Binding to Siglec-5” value was 48.7%.
On the same count and under the same terms, the same measure for B8: 38.5%.
The same measure, in the same setting: as for B9, the figure is 31.8%.

A further assay addresses T2, human Siglec-5 expressed on human …. As to the kind of experiment: flow cytometry, human primary neutrophils, 10 ug/ml mAb.
Description: (§2) Initial characterization of Siglec-5 antibodies involved determining their ability to bind Siglec-5 expressed on human primary monocytes, human primary macrophages, human primary dendritic cells, and human primary neutrophils. Cells were harvested, plated at 10⁶1m1 in a 96 well plate, and incubated in 100 μl PBS containing 2% FBS, 2 mM EDTA and 10 μg/ml Mab and Fc blocking reagent for 1 hour in ice. […] Cells were washed twice in cold PBS and analyze by flow cytometry on a BD FACS Canto. Data analysis and calculation of MFI values was performed with FlowJo (TreeStar) software version 10.0.7.
(§3) Binding is compared to an isotype control.
Regarding B1, the “% Positive” value is 99.2% and the MFI came to 411.
B2: the “% Positive” value amounted to 99.7% and the MFI amounted to 500.
For B3, the “% Positive” value stood at 94.6% and the MFI is 261.
Turning to B4, the “% Positive” value turned out to be 98.1% and the MFI came out at 329.
As to B5, the “% Positive” value was 89% and the MFI is 219.
Take B6: the “% Positive” value came to 94.4% and the MFI came to 253.
The matching figures for B7: 98.9% and 371.
On to B8, for which the “% Positive” value was 97.8% and the MFI was 367.
B9: the “% Positive” value was 87.4% and the MFI came out at 207.

The next assay has as its target T3, Histidine-tagged human Siglec-5 …. As to the kind of experiment: SPR (BiaCore T200, 25 C), mAb captured on anti-mouse IgG, 15 nM His-tagged Siglec-5, single-concentration 1:1 fit.
Description: The binding affinity of each anti-Siglec-5 antibody was determined by measuring their KD by surface plasmon resonance (SPR) assays. SPR data was collected at a rate of 10 Hz at 25° C. on a BiaCore T200 instrument. Data analysis was performed using BiaCore T200 Evaluation
Histidine-tagged human Siglec-5 (NovoProtein) was then flowed over the captured anti-Siglec-5 surface (120 s contact time, 30 4/min flow rate, 300 s dissociation time). […] Duplicate single-concentration trials were performed and bracketed by a blank (0 nM antigen) sample. The chip surface was regenerated in between cycles using 10 mM glycine-HCl, pH 1.7 (60 s contact time, 30 4/min flow rate, 60 s stabilization time). The resulting SPR signal was obtained as the difference in response from measurements performed on a blank flow cell.
Affinity constants (KD) were calculated from the ratio kd/kₐ.
As to B1, the Kd came to 0.069 nM. In other words, the picomolar range.
On to B2, for which binding was characterised by a dissociation constant (Kd) of 0.166 nM.
Turning to B3, binding was characterised by a dissociation constant (Kd) of 0.112 nM.
B4 registered a Kd of 0.184 nM.
On the same count and under the same terms, as for B5, the figure is 0.229 nM.
As for B6, the Kd came out at 0.101 nM. Against the preceding molecule, the Kd is about 2.3-fold lower.
Molecule B7 registered a Kd of 0.104 nM.
B8 showed a Kd of 0.569 nM.
Molecule B9 yielded a Kd of 0.081 nM.

For a further assay, the target named is T2, human Siglec-5 expressed on human …. Put plainly: flow cytometry, human primary dendritic cells, 10 ug/ml mAb.
Description: as §2, §3
For the molecule B1, the “% Positive” value was found to be 96.1% and the MFI was 660.
Take B2: the “% Positive” value was determined as 86.9% and the MFI is 402.
The matching figures for B3: 90.3% and 467.
As to B4, the “% Positive” value was 94% and the MFI stood at 515.
On the same counts, the results for B5 are 85.7% and 349.
As for B6, the “% Positive” value was determined as 93.6% and the MFI was 607.
The matching figures for B7: 95.6% and 589.
With B8, the “% Positive” value came to 86% and the MFI came to 377.
Consider B9, for which the “% Positive” value stood at 90.7% and the MFI amounted to 459.

The target is the same in the next assay. As to the kind of experiment: flow cytometry, human primary macrophages, 10 ug/ml mAb.
Description: as §2, §3
In the case of B1, the “% Positive” value was determined as 94% and the MFI turned out to be 560.
On the same counts, the results for B2 are 80.6% and 451.
Take B3: the “% Positive” value came to 84.1% and the MFI was 445.
For the molecule B4, the “% Positive” value is 93.5% and the MFI stood at 537.
On the same counts, the results for B5 are 83% and 457.
For B6, the “% Positive” value was found to be 94.4% and the MFI was 581.
Turning to B7, the “% Positive” value was found to be 96.2% and the MFI came to 562.
In the case of B8, the “% Positive” value is 84.1% and the MFI is 444.
For the molecule B9, the “% Positive” value turned out to be 91.8% and the MFI is 569.

A further assay has the same target. As to the kind of experiment: flow cytometry, human primary monocytes, 10 ug/ml mAb.
Description: as §2, §3
Take B1: the “% Positive” value is 97.6% and the MFI was found to be 382.
Regarding B2, the “% Positive” value was 95.7% and the MFI came out at 386.
The matching figures for B3: 93.5% and 391.
The matching figures for B4: 96.1% and 404.
As for B5, the “% Positive” value was 98% and the MFI amounted to 398.
In the case of B6, the “% Positive” value is 98.2% and the MFI worked out at 421.
On to B7, for which the “% Positive” value came to 95.3% and the MFI was determined as 405.
In the case of B8, the “% Positive” value turned out to be 95.5% and the MFI was 376.
The matching figures for B9: 97.3% and 368.

A further assay concerns the target T1, Human Siglec 5, Fc chimera (R&D Systems). Put plainly: RBC adhesion to plate-bound Siglec-5-Fc, 1.0 ug/ml mAb, percent of binding without antibody.
Description: as §1
Consider B1, for which the “Percent RBC Binding to Siglec-5” value amounted to 5.79%.
The same measure, in the same setting: the same measure for B2: 4.76%; for B3: 6.86%.
Same read-out and setting: as for B4, the figure is 9.94%; as for B5, 8%; as for B6, 5.21%.
B7: the “Percent RBC Binding to Siglec-5” value worked out at 6.22%.
As for B8, the “Percent RBC Binding to Siglec-5” value is 6.17%.
Take B9: the “Percent RBC Binding to Siglec-5” value turned out to be 6.73%.
